Laboratory results from EP4725501A1.
Read-outs that look alike come from different tables or passages of the source.

Legend:
[1] = molecular target: MASP3 in Factor D depleted human plasma (human) (UniProt P48740); assay: cell-based or functional assay
human MASP3-His (human) [2] = molecular target: human MASP3-His (human) (UniProt P48740); assay: cell-based or functional assay
[3] = molecular target: MASP3 in Factor D depleted human plasma (human) (UniProt P48740); assay: cell-based or functional assay; remark: listed apart in the source
human MASP3-His (human) [4] = molecular target: human MASP3-His (human) (UniProt P48740); assay: ELISA; antigen coated 0.1 ug/well, antibody titrated, goat anti-human IgG-HRP
[5] = molecular target: monkey MASP3-His (monkey); assay: as above
mouse MASP3-His (mouse) = mouse MASP3-His (mouse) (UniProt P98064); assay: as above
Chain of mouse MASP3-His (mouse) (P98064 other isoform, or with tags, fused parts or gaps): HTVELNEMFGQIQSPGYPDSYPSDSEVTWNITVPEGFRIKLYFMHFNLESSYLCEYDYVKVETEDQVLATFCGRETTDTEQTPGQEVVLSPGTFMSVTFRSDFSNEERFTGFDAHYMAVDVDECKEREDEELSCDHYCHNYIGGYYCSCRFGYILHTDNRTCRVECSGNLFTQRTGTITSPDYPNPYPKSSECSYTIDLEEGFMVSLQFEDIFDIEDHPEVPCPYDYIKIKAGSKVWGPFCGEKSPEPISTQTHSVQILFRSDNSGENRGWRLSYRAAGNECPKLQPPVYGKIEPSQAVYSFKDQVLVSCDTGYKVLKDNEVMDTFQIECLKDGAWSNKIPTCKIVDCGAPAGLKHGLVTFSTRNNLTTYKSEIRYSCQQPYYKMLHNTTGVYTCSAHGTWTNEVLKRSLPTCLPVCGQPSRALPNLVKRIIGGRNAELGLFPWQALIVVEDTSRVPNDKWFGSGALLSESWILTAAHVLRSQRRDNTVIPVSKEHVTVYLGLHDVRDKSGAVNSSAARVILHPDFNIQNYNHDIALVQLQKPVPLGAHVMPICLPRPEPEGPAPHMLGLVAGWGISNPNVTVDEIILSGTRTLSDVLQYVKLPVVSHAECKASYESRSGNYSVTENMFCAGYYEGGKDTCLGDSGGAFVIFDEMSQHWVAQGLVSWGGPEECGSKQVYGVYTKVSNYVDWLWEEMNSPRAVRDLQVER

Chain of human MASP3-His (human) (P48740 other isoform, or with tags, fused parts or gaps): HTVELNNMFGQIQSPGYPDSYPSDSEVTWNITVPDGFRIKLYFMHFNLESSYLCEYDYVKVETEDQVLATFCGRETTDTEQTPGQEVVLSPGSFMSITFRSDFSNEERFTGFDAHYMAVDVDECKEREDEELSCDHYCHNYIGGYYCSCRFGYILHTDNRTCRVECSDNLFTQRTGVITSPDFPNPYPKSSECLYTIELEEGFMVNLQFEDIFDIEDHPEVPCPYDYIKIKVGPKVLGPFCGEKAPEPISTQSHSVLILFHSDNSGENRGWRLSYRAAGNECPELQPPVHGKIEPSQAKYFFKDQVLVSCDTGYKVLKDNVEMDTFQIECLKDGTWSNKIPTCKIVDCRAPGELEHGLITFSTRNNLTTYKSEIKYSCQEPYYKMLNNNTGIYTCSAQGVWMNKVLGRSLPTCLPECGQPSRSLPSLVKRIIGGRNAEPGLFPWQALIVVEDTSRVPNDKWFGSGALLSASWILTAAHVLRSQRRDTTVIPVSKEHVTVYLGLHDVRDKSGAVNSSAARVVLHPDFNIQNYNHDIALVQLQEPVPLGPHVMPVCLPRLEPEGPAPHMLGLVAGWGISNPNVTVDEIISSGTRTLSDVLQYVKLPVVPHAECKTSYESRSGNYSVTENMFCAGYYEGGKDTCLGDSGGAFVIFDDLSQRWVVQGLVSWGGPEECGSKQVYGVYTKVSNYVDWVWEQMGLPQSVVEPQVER
Chain of MASP3 in Factor D depleted human plasma (human) (P48740 other isoform, or with tags, fused parts or gaps): as above

IC50 (nM), inhibition of MASP3 enzyme activity (cleavage of fluorescent tripeptide Boc-Val-Pro-Arg-AMC) (human MASP3-His (human) [2]): 200 nM | EC50 (human MASP3-His (human) [4]): 0.98 nM | EC50 [5]: 2.97 nM | EC50 (mouse MASP3-His (mouse)): 5.33 nM
Substance: OMS906 (antibody)
Inhibit hemolysis IC50 [1]: 17.1 nM | Inhibit hemolysis IC50 [3]: 13 nM
